This note sets out measurements from patent publication WO2022102744A1 (dated 2022).

The experiment addresses T1, SARS-CoV-2 spike protein (full S1 and S2 regions, furin recognition sequence removed, histidine tag) (SARS-CoV-2, UniProt P0DTC2 14-1273).
T1 construct: whole, on cells; also called Exo-S; spike protein positive exosome
Description: competition ELISA: ACE2 on plate, Exo-S with titrated antibody; competitor ACE2.

B1: anti-spike protein monoclonal antibody clone A1-1C7 (antibody, V domains shown)
VH: EVQLQQSGTELVTPGASVKLSCTASGFNIKDTYVQWVKQRPEQGLEWIGRIDPASDNTFYASKFQGKASLSSDTSSNTAYMQLSSLTSGDTAVYYCSTYFSNFYYWGQGTPLTVSS
VL: DIQMTQSPASLSASVGDTVTITCGASENIYGALNWYQRKKGKSPQLLIYGATNLADGMSSRFSGRGSGRQYFLKISSLHPDDVATYYCQNVLSVPWTFGGGTKLEIK
notes: also called MAb2B (related to clone A1-1C7)
B1: the IC50 (as a rule, the concentration at which inhibition is half-maximal) stood at 4.8 ng/mL.
